Data on six molecules can be found in article PMC8894380, “A multi-factor trafficking site on the spliceosome remodeling enzyme BRR2 recruits C9ORF78 to regulate alternative splicing” (Nature Communications, 2022).

Positions count from the first letter of the chain named. Names and notes keep the numbering of the source.

What all share (details): both partners purified
For assay [1], the target named is T1, BRR2 helicase region (BRR2^HR, residues 395-2129) (human, UniProt O75643 395-2129).
T1 construct: For the cryoEM complex with C9ORF78 the co-purified proteins were treated with TEV protease and recycled on Ni-NTA; also called His10-BRR2^HR; source: insect cells
Description: cryo-EM structure; complexes purified by SEC, 20 mM Tris-HCl pH 8.0, 150 mM NaCl, 1 mM DTT, 5 mg/ml, 0.15% n-octylglucoside; Titan Krios 300 kV. A general note: In gel filtration, larger molecules generally elute earlier.

Assay [2] addresses T2, BRR2^HR-PRPF8^Jab1 complex (human, UniProt O75643 395-2129; Q6P2Q9 2064-2335).
T2 construct: PRPF8, human, Jab1/MPN-like domain, residues 2064-2335; source: purified BRR2^HR and PRPF8^Jab1 mixed in equimolar amounts
Description: SEC; competition: BRR2^HR with equimolar PRPF8^Jab1 and FBP21^116-376 10 min on ice, then with or without equimolar GST-C9ORF78 for 10 min; analytical SEC as above.

In assay [3] the target is T3, BRR2 C-terminal cassette (BRR2^CC, residues 1282-2136) (human, UniProt O75643 1282-2136).
T3 construct: BRR2 (SNRNP200), human, C-terminal helicase cassette, residues 1282-2136; The His10 tag is named only for the peptide SPOT array; also called His10-BRR2^CC
T3 sequence (looked up): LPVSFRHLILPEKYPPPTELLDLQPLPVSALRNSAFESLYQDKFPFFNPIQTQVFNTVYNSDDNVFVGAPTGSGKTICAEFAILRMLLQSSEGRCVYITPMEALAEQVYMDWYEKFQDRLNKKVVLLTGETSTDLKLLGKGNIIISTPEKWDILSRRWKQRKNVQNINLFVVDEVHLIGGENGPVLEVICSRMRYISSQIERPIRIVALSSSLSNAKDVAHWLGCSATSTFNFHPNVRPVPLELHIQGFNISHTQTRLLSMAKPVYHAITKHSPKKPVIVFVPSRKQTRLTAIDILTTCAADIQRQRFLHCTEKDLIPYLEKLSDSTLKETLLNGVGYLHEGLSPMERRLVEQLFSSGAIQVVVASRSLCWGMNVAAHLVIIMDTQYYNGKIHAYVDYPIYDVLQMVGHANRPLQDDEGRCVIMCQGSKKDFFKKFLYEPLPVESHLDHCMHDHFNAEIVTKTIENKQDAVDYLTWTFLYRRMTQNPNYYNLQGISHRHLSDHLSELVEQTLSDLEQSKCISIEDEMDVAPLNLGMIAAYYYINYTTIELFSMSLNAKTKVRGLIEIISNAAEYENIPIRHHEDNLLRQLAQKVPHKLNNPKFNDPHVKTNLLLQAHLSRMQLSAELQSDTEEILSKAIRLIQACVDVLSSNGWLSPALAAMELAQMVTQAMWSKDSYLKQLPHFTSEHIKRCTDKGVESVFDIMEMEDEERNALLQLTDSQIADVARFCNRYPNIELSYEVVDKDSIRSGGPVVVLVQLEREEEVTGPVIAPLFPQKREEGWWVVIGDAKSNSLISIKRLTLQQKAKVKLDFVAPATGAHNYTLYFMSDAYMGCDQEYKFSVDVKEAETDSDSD
As to the kind of experiment: SEC; analytical SEC, Superdex 200 increase 3.2/300, 20 mM Tris-HCl pH 8.0, 200 mM NaCl, 1 mM DTT; 75 ug BRR2 construct or PRPF8^Jab1 with 1.5-fold molar excess of partner, pre-incubated 10 min on ice; fractions by SDS-PAGE.

In assay [4] the target is T4, full-length BRR2 (BRR2^FL) (human, UniProt O75643 1-2136).
T4 construct: BRR2 (SNRNP200), human, full length; The His10 tag is named only for the peptide SPOT array; also called His10-BRR2^FL; SNRNP200
The description is as above.

For assay [5], the target named is T1, BRR2 helicase region (BRR2^HR, residues …). The description is as above.

T1 sequence (O75643 395-2129): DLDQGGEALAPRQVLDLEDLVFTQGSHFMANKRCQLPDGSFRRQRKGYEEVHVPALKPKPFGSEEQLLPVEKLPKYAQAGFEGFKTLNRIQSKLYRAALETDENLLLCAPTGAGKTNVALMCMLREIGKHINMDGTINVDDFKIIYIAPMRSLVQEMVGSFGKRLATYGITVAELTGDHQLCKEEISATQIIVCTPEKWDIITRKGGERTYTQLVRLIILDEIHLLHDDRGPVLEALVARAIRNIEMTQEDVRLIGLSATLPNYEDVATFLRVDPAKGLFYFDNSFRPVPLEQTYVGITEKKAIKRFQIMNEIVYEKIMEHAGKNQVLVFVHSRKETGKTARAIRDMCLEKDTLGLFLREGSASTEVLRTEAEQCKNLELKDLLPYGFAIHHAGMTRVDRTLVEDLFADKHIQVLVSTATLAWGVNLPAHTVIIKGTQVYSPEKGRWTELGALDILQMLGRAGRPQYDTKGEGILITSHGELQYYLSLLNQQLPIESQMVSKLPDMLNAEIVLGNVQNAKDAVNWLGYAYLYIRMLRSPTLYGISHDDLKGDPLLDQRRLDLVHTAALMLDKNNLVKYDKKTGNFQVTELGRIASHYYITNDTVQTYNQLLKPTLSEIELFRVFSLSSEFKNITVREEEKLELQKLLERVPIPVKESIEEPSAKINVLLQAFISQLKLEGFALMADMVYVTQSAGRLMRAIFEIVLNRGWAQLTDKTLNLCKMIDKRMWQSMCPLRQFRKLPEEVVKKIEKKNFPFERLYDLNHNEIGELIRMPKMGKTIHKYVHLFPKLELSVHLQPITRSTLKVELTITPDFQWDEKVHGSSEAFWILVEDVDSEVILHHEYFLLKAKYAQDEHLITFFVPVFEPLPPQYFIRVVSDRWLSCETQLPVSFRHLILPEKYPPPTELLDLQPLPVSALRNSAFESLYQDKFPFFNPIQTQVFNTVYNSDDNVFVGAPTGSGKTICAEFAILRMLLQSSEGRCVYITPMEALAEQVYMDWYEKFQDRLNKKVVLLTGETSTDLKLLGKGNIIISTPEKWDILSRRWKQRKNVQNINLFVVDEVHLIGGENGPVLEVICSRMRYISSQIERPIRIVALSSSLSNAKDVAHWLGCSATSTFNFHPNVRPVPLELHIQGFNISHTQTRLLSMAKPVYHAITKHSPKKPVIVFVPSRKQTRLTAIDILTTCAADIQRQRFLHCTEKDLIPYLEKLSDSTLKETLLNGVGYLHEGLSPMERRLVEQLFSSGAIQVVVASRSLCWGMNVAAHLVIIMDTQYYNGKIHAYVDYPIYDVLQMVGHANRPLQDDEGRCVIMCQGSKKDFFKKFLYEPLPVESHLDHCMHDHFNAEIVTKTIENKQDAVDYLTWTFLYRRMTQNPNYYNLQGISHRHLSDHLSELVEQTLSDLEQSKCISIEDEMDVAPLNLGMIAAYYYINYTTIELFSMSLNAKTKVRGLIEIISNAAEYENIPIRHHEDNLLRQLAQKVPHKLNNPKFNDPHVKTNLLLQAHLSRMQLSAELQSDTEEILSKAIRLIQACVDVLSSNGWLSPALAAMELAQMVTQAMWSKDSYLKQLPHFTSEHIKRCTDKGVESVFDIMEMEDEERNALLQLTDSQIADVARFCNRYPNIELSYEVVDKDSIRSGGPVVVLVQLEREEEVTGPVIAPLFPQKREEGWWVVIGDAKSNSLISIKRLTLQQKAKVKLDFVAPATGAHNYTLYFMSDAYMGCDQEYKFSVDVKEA

B1: FBP21^200-376 (domain or fragment, human, UniProt O75554 200-376, looked up)
chain: HTSDLPSSKVNENSLGTLDESKSSDSHSDSDGEQEAEEGGVSTETEKPKIKFKEKNKNSDGGSDPETQKEKSIQKQNSLGSNEEKSKTLKKSNPYGEWQEIKQEVESHEEVDLELPSTENEYVSTSEADGGGEPKVVFKEKTVTSLGVMADGVAPVFKKRRTENGKSRNLRQRGDDQ
Regarding B1, in assay [1], the binding result was “binds”.

B2: FBP21^116-376 (domain or fragment, human, UniProt O75554 116-376, looked up)
chain: KKKRKKDPSKGRWVEGITSEGYHYYYDLISGASQWEKPEGFQGDLKKTAVKTVWVEGLSEDGFTYYYNTETGESRWEKPDDFIPHTSDLPSSKVNENSLGTLDESKSSDSHSDSDGEQEAEEGGVSTETEKPKIKFKEKNKNSDGGSDPETQKEKSIQKQNSLGSNEEKSKTLKKSNPYGEWQEIKQEVESHEEVDLELPSTENEYVSTSEADGGGEPKVVFKEKTVTSLGVMADGVAPVFKKRRTENGKSRNLRQRGDDQ
As for B2, the binding result in assay [2] was “binds”.

B3: His6-GST-C9ORF78 (natural protein, human)
chain: MPVVRKIFRRRRGDSESEEDEQDSEEVRLKLEETREVQNLRKRPNGVSAVALLVGEKVQEETTLVDDPFQMKTGGMVDMKKLKERGKDKISEEEDLHLGTSFSAETNRRDEDADMMKYIETELKKRKGIVEHEEQKVKPKNAEDCLYELPENIRVSSAKKTEEMLSNQMLSGIPEVDLGIDAKIKNIISTEDAKARLLAEQQNKKKDSETSFVPTNMAVNYVQHNRFYHEELNAPIRRNKEEPKARPLRVGDTEKPEPERSPPNRKRPANEKATDDYHYEKFKKMNRRY
notes: C9ORF78, human, 34 kDa; Tag cleavage led to degradation and was omitted for functional analyses in vitro; also called GST-C9ORF78^wt; source: E. coli BL21 RIL (pETM30), purified (Glutathione Sepharose, SEC); not shown: His6, N-terminal, kept; GST, N-terminal, kept
On to B3, for which the binding result in assay [2], in assay [3], in assay [4] and in assay [5] was “binds” each time.

B4: C9ORF78 (His6/GST tag cleaved, co-purified with BRR2^HR) (natural protein, human)
chain: B3 chain
notes: C9ORF78, human; the four N-terminal and 231 C-terminal residues not located in the map; 4 + 54 + 231 residues add up to 289, the length that I recall for the whole protein; not shown: His6, N-terminal, cleaved; GST, N-terminal, cleaved
On to B4, for which the binding result in assay [1] is given as “binds”.

B5: GST-C9ORF78^F8A (natural protein, human)
chain: B3 chain with F8A
notes: C9ORF78, human, with F8A; source: E. coli BL21 RIL (pETM30), purified (Glutathione Sepharose, SEC); not shown: His6, N-terminal, kept; GST, N-terminal, kept
On to B5, for which the binding result in assay [5] was “binds”.

B6: PRPF8 Jab1 domain (PRPF8^Jab1; residues 2064-2335) (domain or fragment)
chain: not shown
notes: PRPF8, human, Jab1/MPN-like domain, residues 2064-2335; also called Jab1/MPN-like domain
As to B6, in assay [5], the binding result is on record as “binds”.
